Measured values from publication PMC5497811 (Nature, 2017).
Values belong to the molecule of their own block, whether it stands above or below them.

B1: BT1763 (SusC-like), full-length, in freshly purified BT1762-1763 complex (natural protein, Bacteroides thetaiotaomicron, UniProt Q8A6W3 26-1041, looked up)
chain: GQNITVKGNVTSKTDGQPIIGASVVETTATTNGTITDFDGNFTLSVPVNSTLKITYIGYKPVTVKAAAIVNVLLEEDTQMVDEVVVTGYTTQRKADLTGAVSVVKVDEIQKQGENNPVKALQGRVPGMNITADGNPSGSATVRIRGIGTLNNNDPLYIIDGVPTKAGMHELNGNDIESIQVLKDAASASIYGSRAANGVIIITTKQGKKGQIKINFDASVSASMYQSKMNVLNTEQYGRAMWQAYVNDGENPNGNALGYAYNWGYNADGNPVLYGMTLSKYLDSKNTMPVADTDWFDEITRTGVIQQYNLSVSNGSEKGSSFFSLGYYKNLGVIKDTDFDRFSARMNSDYKLIDDILTIGQHFTLNRTSEVQAPGGIIETALDIPSAIPVYASDGSWGGPVGGWPDRRNPRAVLEYNKDNRYTYWRMFGDAYVNLTPFKGFNLRSTFGLDYANKQARYFTYPYQEGTQTNNGKSAVEAKQEHWTKWMWNAIATYQLEVGKHRGDVMIGMELNREDDSHFSGYKEDFSILTPDYMWPDAGSGTAQAYGAGEGYSLVSFFGKMNYSYADRYLLSLTLRRDGSSRFGKNHRYATFPSVSLGWRITQENFMKELTWLDDLKLRASWGQTGNQEISNLARYTIYAPNYGTTDSFGGQSYGTAYDITGSNGGGVLPSGFKRNQIGNDNIKWETTTQTNVGIDFSLFKQSLYGSLEYYYKKATDILTEMAGVGVLGEGGSRWINSGAMKNQGFEFNLGYRNKTAFGLTYDLNGNISTYRNEILELPETVAANGKFGGNGVKSVVGHTYGAQVGYIADGIFKSQDEVDNHATQEGAAVGRIRYRDIDHNGVIDERDQNWIYDPTPSFSYGLNIYLEYKNFDLTMFWQGVQGVDIISDVKKKSDFWSASNVGFLNKGTRLLNAWSPTNPNSDIPALTRSDTNNEQRVSTYFVENGSFLKLRNIQLGYTVPAVISKKMRMDRLRFYCSAQNLLTIKSKNFTGEDPENPNFSYPIPVNITFGLNIGF

Legend:
[1] = target: BT2264 (SusC-like TonB-dependent transporter) (Bacteroides thetaiotaomicron); assay: crystal structure
[2] = target: the molecule itself; assay: native MS
[3] = target: B1; assay: SDS-PAGE of non-boiled samples

- stoichiometry N [1]: 2
Molecule: BT2264 (SusC-like TonB-dependent transporter) (natural protein)

Molecule: B1
- stoichiometry N [2]: 2

- binding result [3]: binds
B2: BT1762 (SusD-like) with C-terminal 4xAla linker and 6xHis-tag, native from B. theta (natural protein, Bacteroides thetaiotaomicron, UniProt Q8A6W4 19-570, looked up)
chain: CDDFLDRQVPQGIVTGDQIASPEYVDNLVISAYAIWATGDDINSSFSLWNYDVRSDDCYKGGSGTEDGGVFNALEISKGINTTDWNINDIWKRLYQCITRANTALQSLDQMDEKTYPLKNQRIAEMRFLRGHAHFMLKQLFKKIVIVNDENMEPDAYNELSNTTYTNDEQWQKIADDFQFAYDNLPEVQIEKGRPAQAAAAAYLAKTYLYKAYRQDGADNALTGINEEDLKQVVKYTDPLIMAKGGYGLETDYSMNFLPQYENGAESVWAIQYSINDGTYNGNLNWGMGLTTPQILGCCDFHKPSQNLVNAFKTDSQGKPLFSTYDNENYEVATDNVDPRLFHTVGMPGFPYKYNEGYIIQKNDDWSRSKGLYGYYVSLKENVDPDCDCLKKGSYWASSLNHIVIRYADVLLMRAEALIQLNDGRITDAISLINEVRSRAAGSTMLIFNYKEDYGVNFKVTPYDLKAYAQDEAMKMLKWERRVEFGMESSRFFDLVRWGEAKDVINAYYVTEASRCSIYKNAGFTENKNEYLPVPFEQISASNGNYTQNFGW
